{"source": "the RNAGym collection of RNA variant scans (doi:10.7554/elife.80360)", "parents": {"B1": {"name": "CPEB3 Ribozyme (parent)", "chain": "GGGGGCCACAGCAGAAGCGUUCACGUCGCGGCCCCUGUCAGAUUCUGGUGAAUCUGCGAAUUCUGCUGU"}}, "data": [{"variants_of": "B1", "experiment": "self-cleavage, relative activity (ratio to wild type); higher = more cleavage; co-transcriptional", "values": [{"variant": "U20G C22G", "self-cleavage": 0.192}, {"variant": "U20G C22A", "self-cleavage": 0.249}, {"variant": "U20G G58U", "self-cleavage": 0.213}, {"variant": "U20G G58A", "self-cleavage": 0.251}, {"variant": "U20C U62C", "self-cleavage": 0.204}, {"variant": "U20A G50C", "self-cleavage": 0.188}, {"variant": "U20A G50U", "self-cleavage": 0.141}, {"variant": "U20C U26G", "self-cleavage": 0.114}, {"variant": "U20C U26A", "self-cleavage": 0.205}, {"variant": "U20C U26C", "self-cleavage": 0.235}, {"variant": "U20A C63A", "self-cleavage": 0.129}, {"variant": "U20A C63G", "self-cleavage": 0.13}, {"variant": "U20C A52C", "self-cleavage": 0.181}, {"variant": "U20C A52U", "self-cleavage": 0.109}, {"variant": "U20C C57G", "self-cleavage": 0.261}, {"variant": "U21A A51U", "self-cleavage": 0.952}, {"variant": "U21A A51C", "self-cleavage": 0.953}, {"variant": "U21A A51G", "self-cleavage": 1.01}, {"variant": "U20A G31U", "self-cleavage": 0.17}, {"variant": "U20A G31C", "self-cleavage": 0.0954}, {"variant": "U20A G31A", "self-cleavage": 0.135}, {"variant": "U20C C35G", "self-cleavage": 0.129}, {"variant": "U20C C35A", "self-cleavage": 0.169}, {"variant": "U20C C35U", "self-cleavage": 0.145}, {"variant": "U20A U69G", "self-cleavage": 0.282}, {"variant": "U20A U69C", "self-cleavage": 0.225}, {"variant": "U20G G37A", "self-cleavage": 0.173}, {"variant": "U20G G37C", "self-cleavage": 0.151}, {"variant": "U20C A40G", "self-cleavage": 0.212}, {"variant": "U20C C33A", "self-cleavage": 0.286}, {"variant": "U20C C33U", "self-cleavage": 0.219}, {"variant": "U20C C33G", "self-cleavage": 0.113}, {"variant": "U20C C22U", "self-cleavage": 0.229}, {"variant": "U20C C22G", "self-cleavage": 0.214}, {"variant": "U20G A51G", "self-cleavage": 0.193}, {"variant": "U20C G65A", "self-cleavage": 0.141}, {"variant": "U20G G48A", "self-cleavage": 0.127}, {"variant": "U20G G48U", "self-cleavage": 0.141}, {"variant": "U20G U46C", "self-cleavage": 0.164}, {"variant": "U20G U46A", "self-cleavage": 0.164}, {"variant": "U20C G68A", "self-cleavage": 0.336}, {"variant": "U20A G58A", "self-cleavage": 0.208}, {"variant": "U20A G58U", "self-cleavage": 0.152}, {"variant": "U20G G30A", "self-cleavage": 0.126}, {"variant": "U21A C24A", "self-cleavage": 0.541}, {"variant": "U21A C24G", "self-cleavage": 0.214}, {"variant": "U20G A52C", "self-cleavage": 0.148}, {"variant": "U20G A52U", "self-cleavage": 0.183}, {"variant": "U20G A52G", "self-cleavage": 0.292}, {"variant": "U20G U21G", "self-cleavage": 0.148}, {"variant": "U20G U21A", "self-cleavage": 0.252}, {"variant": "U20C C39U", "self-cleavage": 0.176}, {"variant": "U20C C39A", "self-cleavage": 0.224}, {"variant": "U20C C39G", "self-cleavage": 0.201}, {"variant": "U20C C66A", "self-cleavage": 0.204}, {"variant": "U20C C66U", "self-cleavage": 0.272}, {"variant": "U20A U21C", "self-cleavage": 0.0963}, {"variant": "U20A U38G", "self-cleavage": 0.23}, {"variant": "U20A C45U", "self-cleavage": 0.144}, {"variant": "U20A G65C", "self-cleavage": 0.113}, {"variant": "U20A G65U", "self-cleavage": 0.19}, {"variant": "U20A U55G", "self-cleavage": 0.112}, {"variant": "U20A U55C", "self-cleavage": 0.118}, {"variant": "U20A U55A", "self-cleavage": 0.237}, {"variant": "U20G U61G", "self-cleavage": 0.171}, {"variant": "U20G U61C", "self-cleavage": 0.19}, {"variant": "U20C A23C", "self-cleavage": 0.243}, {"variant": "U20C A23U", "self-cleavage": 0.257}, {"variant": "U20C A59G", "self-cleavage": 0.277}, {"variant": "U20C A59U", "self-cleavage": 0.15}, {"variant": "U20C A59C", "self-cleavage": 0.124}, {"variant": "U21A A42C", "self-cleavage": 0.902}, {"variant": "U21A A42G", "self-cleavage": 0.858}, {"variant": "U20G U64C", "self-cleavage": 0.189}, {"variant": "U20A U67G", "self-cleavage": 0.271}, {"variant": "U20A U67C", "self-cleavage": 0.127}, {"variant": "U20C C54G", "self-cleavage": 0.206}, {"variant": "U20C C54U", "self-cleavage": 0.182}, {"variant": "U20C G31U", "self-cleavage": 0.204}, {"variant": "U20C G31C", "self-cleavage": 0.148}, {"variant": "U20C G31A", "self-cleavage": 0.261}, {"variant": "U20G A60C", "self-cleavage": 0.191}, {"variant": "U20G A60G", "self-cleavage": 0.0625}, {"variant": "U20G A60U", "self-cleavage": 0.073}, {"variant": "U20G C54A", "self-cleavage": 0.203}, {"variant": "U20G C54U", "self-cleavage": 0.196}, {"variant": "U20G C54G", "self-cleavage": 0.118}, {"variant": "U20G C33A", "self-cleavage": 0.135}, {"variant": "U20G C33G", "self-cleavage": 0.261}, {"variant": "U20C U49A", "self-cleavage": 0.137}, {"variant": "U20C U49C", "self-cleavage": 0.214}, {"variant": "U20C U49G", "self-cleavage": 0.231}, {"variant": "U20G U55A", "self-cleavage": 0.139}, {"variant": "U20G U55G", "self-cleavage": 0.106}, {"variant": "U20G U55C", "self-cleavage": 0.148}, {"variant": "U20C U64C", "self-cleavage": 0.278}, {"variant": "U20C U64A", "self-cleavage": 0.167}, {"variant": "U20C U64G", "self-cleavage": 0.104}, {"variant": "U20G C34G", "self-cleavage": 0.28}, {"variant": "U20G C34U", "self-cleavage": 0.268}, {"variant": "U21A A52C", "self-cleavage": 1.03}, {"variant": "U21A A52G", "self-cleavage": 1.01}, {"variant": "U21A A52U", "self-cleavage": 0.935}, {"variant": "U20G C57U", "self-cleavage": 0.143}, {"variant": "U20C C45U", "self-cleavage": 0.201}, {"variant": "U20C C45G", "self-cleavage": 0.217}, {"variant": "U20C C45A", "self-cleavage": 0.219}, {"variant": "U20A G48A", "self-cleavage": 0.124}, {"variant": "U20A G25U", "self-cleavage": 0.135}, {"variant": "U20A G25A", "self-cleavage": 0.198}, {"variant": "U20A G25C", "self-cleavage": 0.165}, {"variant": "U20C U53C", "self-cleavage": 0.161}, {"variant": "U20A U46G", "self-cleavage": 0.128}, {"variant": "U20A U46C", "self-cleavage": 0.0817}, {"variant": "U20A U46A", "self-cleavage": 0.216}, {"variant": "U20G G41C", "self-cleavage": 0.0984}, {"variant": "U20G G41A", "self-cleavage": 0.127}, {"variant": "U20G G41U", "self-cleavage": 0.194}, {"variant": "U20G A42U", "self-cleavage": 0.216}, {"variant": "U20G A42C", "self-cleavage": 0.279}, {"variant": "U20G A42G", "self-cleavage": 0.079}, {"variant": "U21A A23U", "self-cleavage": 0.962}, {"variant": "U21A A23G", "self-cleavage": 0.943}, {"variant": "U21A A23C", "self-cleavage": 0.969}, {"variant": "U20G G47C", "self-cleavage": 0.189}, {"variant": "U20G G47U", "self-cleavage": 0.226}, {"variant": "U20G G47A", "self-cleavage": 0.247}, {"variant": "U20C A51G", "self-cleavage": 0.272}, {"variant": "U20C C32A", "self-cleavage": 0.192}, {"variant": "U20G C45A", "self-cleavage": 0.221}, {"variant": "U20G C45U", "self-cleavage": 0.202}, {"variant": "U20G C45G", "self-cleavage": 0.11}, {"variant": "U20A A51U", "self-cleavage": 0.153}, {"variant": "U20A A51G", "self-cleavage": 0.186}, {"variant": "U20A A51C", "self-cleavage": 0.151}, {"variant": "U20C G41A", "self-cleavage": 0.247}, {"variant": "U20C G41C", "self-cleavage": 0.139}, {"variant": "U20C G41U", "self-cleavage": 0.137}, {"variant": "U20C U36A", "self-cleavage": 0.125}, {"variant": "U20A G68A", "self-cleavage": 0.196}, {"variant": "U20A G68C", "self-cleavage": 0.253}, {"variant": "U20A G68U", "self-cleavage": 0.142}, {"variant": "U20G U38A", "self-cleavage": 0.288}, {"variant": "U20G U38C", "self-cleavage": 0.185}, {"variant": "U20A U53G", "self-cleavage": 0.136}, {"variant": "U20A U53A", "self-cleavage": 0.0892}, {"variant": "U20A U53C", "self-cleavage": 0.154}, {"variant": "U20C C29A", "self-cleavage": 0.227}, {"variant": "U20C C29U", "self-cleavage": 0.128}, {"variant": "U20G A23U", "self-cleavage": 0.243}, {"variant": "U20G A23C", "self-cleavage": 0.196}, {"variant": "U20G A23G", "self-cleavage": 0.32}, {"variant": "U20G U43C", "self-cleavage": 0.182}, {"variant": "U20G U43A", "self-cleavage": 0.0656}, {"variant": "U21A A40U", "self-cleavage": 0.896}, {"variant": "U21A A40C", "self-cleavage": 0.651}, {"variant": "U21A A40G", "self-cleavage": 0.97}, {"variant": "U20A U36G", "self-cleavage": 0.201}, {"variant": "U20A U36C", "self-cleavage": 0.149}, {"variant": "U20C U44A", "self-cleavage": 0.185}, {"variant": "U20G A40C", "self-cleavage": 0.243}, {"variant": "U20G A40G", "self-cleavage": 0.169}, {"variant": "U20G A40U", "self-cleavage": 0.134}, {"variant": "U20G U53A", "self-cleavage": 0.127}, {"variant": "U20G U53C", "self-cleavage": 0.222}, {"variant": "U20G U53G", "self-cleavage": 0.166}, {"variant": "U20A G56C", "self-cleavage": 0.113}]}]}
